Laboratory results as given in patent publication US20190169638.

Tests used:
[1] = tested on: Sleeping Beauty transposase SB10 (synthetic (Sleeping Beauty, reconstructed salmonid Tc1/mariner)?); assay: cell_activity; conditions: transposition in HeLa
[2] = tested on: Sleeping Beauty transposase N123 (PAIRED DNA-binding domain, PAI+RED) (synthetic (Sleeping Beauty, reconstructed salmonid Tc1/mariner)?); assay: EMSA; conditions: reference for CAST sequences

Row | Sequence | activity (% of wild-type transposon) [1] | binding signal [2] [fold]
1 | GTGACGACCCCAAGTGTACATACACGCGCC (double strand) [pT/neo transposon with all four DRs CAST-5] | 2.2 | –
2 | GTGACGACCCCAAGTGTACATACACGCGCC (double strand) [pT/neo transposon with 14DRs replaced by CAST-5] | 3 | –
3 | ACATACACTTAAGTGTATGTAAACTTCCGACTTCAACTTGG / GACTCCAAGTTGAAGTCGGAAGTTTACATACACTTAAGTGTATGT [14DR (outer DR) probe] | – | 1
4 | GTACATACACGCGCACTTCTGACCCACTGG (double strand) [pT/neo transposon with CAST-5/wt hybrid inner DRs] | 130 | –
5 | GTGACGACCCCAAGTGTACATACACGCGCC (double strand) [pT/neo transposon with 12DRs replaced by CAST-5] | 65 | –
